Series [1] can be described thus: UV visible near-infrared and fluorescence spectra in aqueous solution. The series is classed as physicochemical. As to conditions: 10 μM in ultrapure water.
A short description of series [2]: TEM and particle size of probe in aqueous solution. The format is physicochemical. To be noted: TEM.
For series [3] the following is noted: 10 μM.
In series [4] the test system is 4T1 mice breast cancer tumor. The procedure: The control group probe CR and the experimental group probe f-CR were treated with PBS to a concentration of […] 200 μL. MB (PBS, 0.1) was injected into the mouse tumor 0.5 hours in advance by intratumor injection, followed by tail vein injection of CR or f-CR.
The next series concerns 4T1 cells. Description: Cytotoxicity of probes co-incubated with MB and cells.

In series [1], `CC[N+]1=C(/C=C/C=C/C=C/C=C2\N(CCCCCC(=O)NCCCCC3NC(=O)C(Cc4ccccc4)NC(=O)C(CC(=O)O)NC(=O)CNC(=O)C(CCCNC(=N)N)NC3=O)c3ccc(S(=O)(=O)O)cc3C2(C)C)C(C)(C)c2cc(S(=O)(=O)O)ccc21` (stereo not drawn) [CR] yielded a maximum absorption of 747 nm and a maximum emission of 789 nm. Also, the assembly or nanostructure result in series [2] was “no assembly or nanostructure was found”. Besides, the “solubility in ultrapure water” value in series [3] is given as “completely soluble”.

As for `CC[N+]1=C(/C=C/C=C/C=C/C=C2\N(CCCCCC(=O)NC(CCCCNC(=O)CCc3ccco3)C(=O)NCCCCC3NC(=O)C(Cc4ccccc4)NC(=O)C(CC(=O)O)NC(=O)CNC(=O)C(CCCNC(=N)N)NC3=O)c3ccc(S(=O)(=O)O)cc3C2(C)C)C(C)(C)c2cc(S(=O)(=O)O)ccc21` (stereo not drawn) [f-CR], in series [3], the “solubility in ultrapure water” value is on record as “completely soluble”. The “enrichment in the tumor” value in series [4] (12 hours after probe injection, f-CR+MB+660 nm, tumor sections and organ homogenates) is reported as “much higher than that of other groups”. Besides, the “retention time in vivo (tumor, IVIS)” value in series [4] (MB intratumor 0.5 hours in advance, probe 100 Mm 200 μL tail vein, 660 nm 50 mW/cm^2 3 minutes after 1 hour) is given as “much longer than that of other groups”. Besides, the toxicity without illumination result in the series on 4T1 cells (100, 50, 20, 10, 1, 0.1 μM + MB 0.1 μM, 4T1 cells, 12 hours) was “neither CR nor f-CR showed significant toxicity”. Moreover, in the series on 4T1 cells (probe + MB 0.1 μM, 4T1 cells 12 hours, 660 nm 50 mW/cm 2 3 minutes, further cultured 48 hours), the cytotoxicity after illumination result is “exhibited certain cytotoxicity”.
